In PMC12412668:

T1: CD96 on primary human CD4^+ T cells and PBMCs (human (endogenous in primary CD4^+ T cells and PBMCs)) (UniProt P40200)
T1 sequence: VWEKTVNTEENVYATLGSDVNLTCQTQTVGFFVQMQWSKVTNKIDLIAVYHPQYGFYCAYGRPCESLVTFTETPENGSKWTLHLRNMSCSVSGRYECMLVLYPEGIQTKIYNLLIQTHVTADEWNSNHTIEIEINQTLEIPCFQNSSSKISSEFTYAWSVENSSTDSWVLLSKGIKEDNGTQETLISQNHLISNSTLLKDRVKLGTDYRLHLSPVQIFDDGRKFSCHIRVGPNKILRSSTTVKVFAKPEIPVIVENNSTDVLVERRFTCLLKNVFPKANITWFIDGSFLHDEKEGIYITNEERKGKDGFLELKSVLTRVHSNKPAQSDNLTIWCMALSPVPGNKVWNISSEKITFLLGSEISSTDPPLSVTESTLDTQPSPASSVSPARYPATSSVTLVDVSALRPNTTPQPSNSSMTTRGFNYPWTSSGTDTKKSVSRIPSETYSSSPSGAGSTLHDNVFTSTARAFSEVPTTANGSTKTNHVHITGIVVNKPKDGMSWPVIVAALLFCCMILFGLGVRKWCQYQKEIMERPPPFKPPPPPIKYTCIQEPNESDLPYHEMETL


Legend:
[1] = target: T1, CD96 on primary human CD4^+ T cells and PBMCs (human (endogenous in primary CD4^+ T cells and PBMCs))
[2] = target: T1, CD96 on primary human CD4^+ T cells and PBMCs (human (endogenous in primary CD4^+ T cells and PBMCs)); remark: listed apart in the source

Binder	adherence of primary CD4^+ T cells (mock-infected or infected with WT HIV-1) to wells coated with CD155-Fc, percent adherent cells by flow cytometry [1] [%]	IFN-γ release (ELISpot) of PBMCs stimulated with HCMV pp65 peptide and costimulated with soluble CD155 (5 μg/ml), fold change relative to pp65 alone [2] [fold]
Recombinant human CD155-Fc chimera (carrier-free) (Fc fusion) WPPPGTGDVVVQAPTQVPGFLGDSVTLPCYLQVPNMEVTHVSQLTWARHGESGSMAVFHQTQGPSYSESKRLEFVAARLGAELRNASLRMFGLRVEDEGNYTCLFVTFPQGSRSVDIWLRVLAKPQNTAEVQKVQLTGEPVPMARCVSTGGRPPAQITWHSDLGGMPNTSQVPGFLSGTVTVTSLWILVPSSQVDGKNVTCKVEHESFEKPQLLTVNLTVYYPPEVSISGYDNNWYLGQNEATLTCDARSNPEPTGYNWSTTMGPLPPFAVAQGAQLLIRPVDKPINTTLICNVTNALGARQAELTVQVKEGPPSEHSGISRN	20	–
Human CD155 (PVR) Fc chimera recombinant protein (Fc fusion) WPPPGTGDVVVQAPTQVPGFLGDSVTLPCYLQVPNMEVTHVSQLTWARHGESGSMAVFHQTQGPSYSESKRLEFVAARLGAELRNASLRMFGLRVEDEGNYTCLFVTFPQGSRSVDIWLRVLAKPQNTAEVQKVQLTGEPVPMARCVSTGGRPPAQITWHSDLGGMPNTSQVPGFLSGTVTVTSLWILVPSSQVDGKNVTCKVEHESFEKPQLLTVNLTVYYPPEVSISGYDNNWYLGQNEATLTCDARSNPEPTGYNWSTTMGPLPPFAVAQGAQLLIRPVDKPINTTLICNVTNALGARQAELTVQVKEGPPSEHSGISRN	–	< 8
